The target in data set [1] is T1, MYB70 (Arabidopsis thaliana, UniProt O22179 1-309). Kind of data set: EMSA.
For data set [2], the target named is T1, MYB70. Kind of data set: EMSA. This is another data set of the same source.

Like-named read-outs stand apart in the source and are kept apart here.

B1: PER57 probe (PER probe) (dsDNA)
DNA 1: GCCTCAACTAATAAGTTGTTATGTGCAA
DNA 2: TTGCACATAACAACTTATTAGTTGAGGC
In the case of B1, the binding result with MYB70 [1] is given as “binds”.

B2: GH3.3 probe (dsDNA)
DNA 1: ATCAAGAATTAGTTTTAGTTATCAATAAATAGGA
DNA 2: TCCTATTTATTGATAACTAAAACTAATTCTTGAT
Turning to B2, the binding result with MYB70 [2] is given as “binds”.

B3: GPAT5 probe (dsDNA)
DNA 1: AATCATAGTTTTGTTACAAGCGAAATCTGAAA
DNA 2: TTTCAGATTTCGCTTGTAACAAAACTATGATT
B3: in the data set with MYB70 [1], the binding result is listed as “binds”.
